Experimental findings from patent US20240228596A1 are described below.

The assay has as its target SARS-COV-2 Wuhan WT Spike_del18 on VSV-delG pseudotyped particles (SARS-COV-2) (UniProt P0DTC2). Description: cell-based or functional assay.

As for “VHH72-5mut-Fc (VHH72_h1_E1D_R27L_E31D_Y32I_S56G_L97A-10xGS-hIgG1_EPKSCdel_LALA_K447del) (Fc fusion)”, the potency of neutralization against D72-53 was determined as 2.5 times.
